Experimental data published in paper PMC10875832.

Key:
[1] = biological target: EDSV fibre knob (egg drop syndrome virus (EDSV)); test: SPR; Biacore X100, CM5 sensor chip; fibre knobs immobilised, soluble CAR domains in solution (said for D12); 1:1 binding model
[2] = biological target: FAdV-4 fiber1 knob (fowl adenovirus 4 (FAdV-4)); test: as above
[3] = biological target: FAdV-4 fiber1 knob (fowl adenovirus 4 (FAdV-4)); test: crystal structure; crystal in 20% (w/v) PEG 4000 and 0.15 M potassium sulfate; one chain in the asymmetric unit, trimer by crystal symmetry
[4] = biological target: CELO fiber1 knob (chicken embryo lethal orphan (CELO) virus); test: SPR; Biacore X100, CM5 sensor chip; fibre knobs immobilised, soluble CAR domains in solution (said for D12); 1:1 binding model

| Substance | Kd [1] [µM] | Kd [2] [µM] | stoichiometry N [3] | Kd [4] [µM] | fold weaker affinity than the D1 domain for the same knob [4] [fold] |
| --- | --- | --- | --- | --- | --- |
| soluble CAR D1 domain (domain or fragment) | 2.76 | 7.42 | – | – | – |
| soluble CAR D12 (domain or fragment) | 2.67 | 0.868 | – | – | – |
| FAdV-4 fiber1 knob (domain or fragment) | – | – | 3 | – | – |
| soluble CAR D2 domain (domain or fragment) | 4.77 | 6.29 | – | 11200 | 1000 |
